Measured values reported in patent US8993839B2, “Plant-based production of heterologous proteins” (The Regents of the University of California, priority 2010, dated 2015).

Substrate: Cc1cc(=O)oc2cc(O[C@@H]3O[C@H](CO)[C@@H](O[C@@H]4O[C@H](CO)[C@@H](O)[C@H](O)[C@H]4O)[C@H](O)[C@H]3O)ccc12
Test: Michaelis-Menten kinetics of purified E1 (produced in P. pastoris, IMAC purified): cleavage of MUC to cellobiose and MU at various temperatures
Assay type: biochemical, Acidothermus cellulolyticus
Conditions: substrate MUC, from Lineweaver-Burk fit
Procedure: Endoglucanase activity assay: Endoglucanase (E1) cleaves methylumbelliferyl-tagged cellobiose (MUC), releasing methylumbelliferone (MU). The MU fluorescence can be measured to determine E1 activity. The relative fluorescence readings of 0.024 to 3.0 μM MU solutions were used to create a linear standard curve. Samples containing E1 were diluted so the concentration of MU released fell within the standard curve. A 60 μl aliquot of diluted supernatant was added to 540 μl of acetate buffer (200 mM acetate, pH 5.5, 100 mM NaCl) and 200 μl of substrate (500 μM MUC). 200 μl of reaction was sampled at time zero and after 30 minutes and added to 800 μl of stop buffer (150 mM glycine, pH 10). The change in fluorescence over time was measured with a VersaFluor fluorometer (Bio-Rad). Fluorescence was converted to an activity, and the specific activity reported in the literature was used to approximate the concentration of E1 in Pichia supernatants. The Michaelis-Menten kinetic parameters of purified endoglucanase were determined. The E1 was produced in P. pastoris and purified by IMAC (immobilized metal affinity chromatography). E1 cleaves the substrate (MUC) into cellobiose and a fluorophore (MU), the concentration of which can be monitored over time. When run at 65° C. and […] substrate, this is the reaction used for the activity assay for E1 in plant extracts and yeast cultures. In this set of experiments, the substrate concentration was varied to determine the kinetic parameters at different temperatures. The rate for a reaction displaying Michaelis-Menten kinetics is shown in Equation 1. The rate depends on the catalysis rate (kcat), the total enzyme concentration (ET), the adsorption/desorption rates which are lumped into the Michaelis-Menten constant (KM), and the substrate concentration (S). At high substrate concentrations (S>>KM), the rate approaches a maximum, and […] is often written as Vmax. The parameters Vmax and KM can be determined experimentally by varying the substrate concentration (S) and measuring the reaction rate (V) at each concentration. Equation 1 can be rearranged as a linear equation (Equation 2). When the reciprocal of the reaction rate (V) is plotted against the reciprocal of the substrate concentration (S), a line fitting the data points can be used to determine KM/Vmax (the slope) and 1/Vmax (y-intercept). A Bradford assay was used to determine the E1 protein concentration in each sample, and this value of ET was used to calculate the kcat values in Table 1. Table 1 depicts a summary of Michaelis-Menten parameters for E1-catalyzed degradation of MUC to MU at various temperatures.

[1] = other: 93 °C, uncertainty approaches 100%, not used further, 93.0 °C

B1: Acidothermus cellulolyticus β-1,4-endoglucanase E1 (P. pastoris-produced) (Acidothermus cellulolyticus 11B) (protein)
chain: AGGGYWHTSGREILDANNVPVRIAGINWFGFETCNYVVHGLWSRDYRSMLDQIKSLGYNTIRLPYSDDILKPGTMPNSINFYQMNQDLQGLTSLQVMDKIVAYAGQIGLRIILDRHRPDCSGQSALWYTSSVSEATWISDLQALAQRYKGNPTVVGFDLHNEPHDPACWGCGDPSIDWRLAAERAGNAVLSVNPNLLIFVEGVQSYNGDSYWWGGNLQGAGQYPVVLNVPNRLVYSAHDYATSVYPQTWFSDPTFPNNMPGIWNKNWGYLFNQNIAPVWLGEFGTTLQSTTDQTWLKTLVQYLRPTAQYGADSFQWTFWSWNPDSGDTGGILKDDWQTVDTVKDGYLAPIKSSIFDPVGASASPSSQPSPSVSPSPSPSPSASRTPTPTPTPTASPTPTLTPTATPTPTASPTPSPTAASGARCTASYQVNSDWGNGFTVTVAVTNSGSVATKTWTVSWTFGGNQTITNSWNAAVTQNGQSVTARNMSYNNVIQPGQNTTFGFQASYTGSNAAPTVACAASHHHHHH
B1 gave a Km (other: 50 °C, 50.0 °C) of 59 ± 3 µM, a Vmax (other: 50 °C, 50.0 °C) of 0.083 µM/min and a Km (other: 65 °C, 65.0 °C) of 131 ± 4 µM. It also gave a Vmax (other: 65 °C, 65.0 °C) of 0.242 µM/min, a Km (other: 80 °C, 80.0 °C) of 372 ± 50 µM and a Vmax (other: 80 °C, 80.0 °C) of 0.523 µM/min. It also gave a Km [1] of 576 ± 570 µM and a Vmax [1] of 0.229 µM/min.
